Reference: publication PMC13276077

Tests used:
Test in all cases: EMSA
[1] = molecular target: HisMBP-MeCP2 162-309 (Homo sapiens) (UniProt P51608); details: apparent, competitor DNA, EMSA: 20 mM HEPES pH 7.5, 75 mM NaCl, 125 mM KCl, 50 uM EDTA, 2.5 mM beta-mercaptoethanol, 5% glycerol, BSA, 1.58 uM 47 bp competitor DNA (absent in free DNA …)
[2] = molecular target: MeCP2 MBD (Homo sapiens) (UniProt P51608); details: EMSA: 20 mM HEPES pH 7.5, 75 mM NaCl, 125 mM KCl, 50 uM EDTA, 2.5 mM beta-mercaptoethanol, 5% glycerol, BSA, 1.58 uM 47 bp competitor DNA (absent in free DNA …)
[3] = molecular target: MeCP2 R133G R133G (Homo sapiens) (UniProt P51608); details: apparent, competitor DNA, EMSA: 20 mM HEPES pH 7.5, 75 mM NaCl, 125 mM KCl, 50 uM EDTA, 2.5 mM beta-mercaptoethanol, 5% glycerol, BSA, 1.58 uM 47 bp competitor DNA (absent in free DNA …)
[4] = molecular target: MeCP2 full-length, e2 isoform (Homo sapiens) (UniProt P51608); details: EMSA: 20 mM HEPES pH 7.5, 75 mM NaCl, 125 mM KCl, 50 uM EDTA, 2.5 mM beta-mercaptoethanol, 5% glycerol, BSA, 1.58 uM 47 bp competitor DNA (absent in free DNA …)
[5] = molecular target: MeCP2 AT-DIRmut R188G;R190G;K254N;K256N;R268Q (Homo sapiens) (UniProt P51608); details: apparent, competitor DNA, EMSA: 20 mM HEPES pH 7.5, 75 mM NaCl, 125 mM KCl, 50 uM EDTA, 2.5 mM beta-mercaptoethanol, 5% glycerol, BSA, 1.58 uM 47 bp competitor DNA (absent in free DNA …)
[6] = molecular target: MeCP2 AT-DIRmut;histone octamer R188G;R190G;K254N;K256N;R268Q|H2B T115C;H3.1 C96S;C110A (Homo sapiens;) (UniProt P51608+P0C0S8+P62807+P68431+P62805); details: 20 mM HEPES pH 7.5, 75 mM NaCl, 125 mM KCl, 50 uM EDTA, 2.5 mM beta-mercaptoethanol, 5% glycerol, BSA, 1.58 uM 47 bp competitor DNA (nucleosome assays), absent …, low values mean tight binding
[7] = molecular target: MeCP2 MBD;histone octamer H2B T115C;H3.1 C96S;C110A (Homo sapiens;) (UniProt P51608+P0C0S8+P62807+P68431+P62805); details: 20 mM HEPES pH 7.5, 75 mM NaCl, 125 mM KCl, 50 uM EDTA, 2.5 mM beta-mercaptoethanol, 5% glycerol, BSA, 1.58 uM 47 bp competitor DNA (nucleosome assays), absent …, low values mean tight binding
[8] = molecular target: MeCP2 full-length, e2 isoform;histone H1.0;histone octamer H2B T115C;H3.1 C96S;C110A (Homo sapiens;Homo sapiens;) (UniProt P51608+P07305+P0C0S8+P62807+P68431+P62805); details: 20 mM HEPES pH 7.5, 75 mM NaCl, 125 mM KCl, 50 uM EDTA, 2.5 mM beta-mercaptoethanol, 5% glycerol, BSA, 1.58 uM 47 bp competitor DNA (nucleosome assays), absent …, low values mean tight binding
[9] = molecular target: MeCP2 full-length, e2 isoform;histone octamer H2B T115C;H3.1 C96S;C110A (Homo sapiens;) (UniProt P51608+P0C0S8+P62807+P68431+P62805); details: 20 mM HEPES pH 7.5, 75 mM NaCl, 125 mM KCl, 50 uM EDTA, 2.5 mM beta-mercaptoethanol, 5% glycerol, BSA, 1.58 uM 47 bp competitor DNA (nucleosome assays), absent …, low values mean tight binding
[10] = meCpG at +83, -61, -80 bp from dyad

Q: “GAGCCACAAAATCACCGACGCTCACGGGTGCCCAGTTCGCGCGCCCACCTACCGTGTGAAGTCGTCACTCGGGCTTCTAAGTACGCTTAGCGCACGGTAGAGCGCAATCCAAGGCTAACCACCGTGCATCGATGTTGAAAGAGGCCCTCCGTCCTTATTACTTCAAGTCCCTGGGGTACCCGTTTCACTGCCA (double strand) [16-N603-30 nucleosome 91 meCpA]” was tested. Which Kd ([1]; asymmetric meCpA at 91) did it give?
A: Its Kd is 103 nM.

Q: And the Kd ([2]; asymmetric meCpA at 91)?
A: Its Kd is 85.7 nM.

Q: And the Kd ([3]; asymmetric meCpA at 91)?
A: Its Kd is 162 nM.

Q: And the Kd ([4]; asymmetric meCpA at 91)?
A: Its Kd is 57.1 nM.

Q: With “GCTTCACCTCGTGACCCAAGCGACACCGGCACTGGGACAGGATGTATATATGTGACACGTGCCTGGAGACTAGGGAGTAATCCCCTTGGCGGTTAAAACGCGGGGGACAGCGCGTACGTGCGTTTAAGCGGTGCTAGAGCTGTCTACGACCAATTGAGCGGCCTCGGCACCGGGATTCTCCAGGGGATCCGGCATCATGGTCTAGAGCG (double strand) [37-N601-27 nucleosome 3x meCpG]” as the sequence, how does the Kd [5, 10] read?
A: The Kd was 42.5 nM.

Q: And the Kd [6, 10]?
A: Its Kd is 42.5 nM.

Q: And the Kd [2, 10]?
A: Its Kd is 67.9 nM.

Q: And the Kd [7, 10]?
A: Its Kd is 67.9 nM.

Q: And the Kd ([4]; apparent, H1.0 prebound (chromatosome), competitor DNA, meCpG at +83, -61, -80 bp from dyad)?
A: Its Kd is 46 nM.

Q: What about the Kd [4, 10] of the same sequence?
A: The Kd was 37.5 nM.

Q: And the Kd [8, 10]?
A: Its Kd is 46 nM.

Q: And the Kd [9, 10]?
A: The Kd was 37.5 nM.

Q: With “GCTTCACCTCGTGACCCAAGCGACACCGGCACTGGGACAGGATGTATATATGTGACACGTGCCTGGAGACTAGGGAGTAATCCCCTTGGCGGTTAAAACGCGGGGGACAGCGCGTACGTGCGTTTAAGCGGTGCTAGAGCTGTCTACGACCAATTGAGCGGCCTCGGCACCGGGATTCTCCAGGGGATCCGGCATCATGGTCTAGAGCG (double strand) [37-N601-27 nucleosome -1 meCpG]” as the sequence, how does the Kd ([5]; meCpG at -1 (GACAGCGCGTAC)) read?
A: Its Kd is 119 nM.

Q: And the Kd ([6]; meCpG at -1 (GACAGCGCGTAC))?
A: Its Kd is 119 nM.

Q: What about the Kd ([2]; meCpG at -1 (GACAGCGCGTAC)) of the same sequence?
A: Its Kd is 234 nM.

Q: And the Kd ([7]; meCpG at -1 (GACAGCGCGTAC))?
A: The Kd was 234 nM.

Q: And the Kd ([4]; apparent, H1.0 prebound (chromatosome), competitor DNA, meCpG at -1 (GACAGCGCGTAC))?
A: The Kd was 80.4 nM.

Q: And the Kd ([4]; meCpG at -1 (GACAGCGCGTAC))?
A: The Kd was 72.1 nM.

Q: And the Kd ([8]; meCpG at -1 (GACAGCGCGTAC))?
A: Its Kd is 80.4 nM.

Q: And the Kd ([9]; meCpG at -1 (GACAGCGCGTAC))?
A: Its Kd is 72.1 nM.

Q: For “GCTTCACCTCGTGACCCAAGCGACACCGGCACTGGGACAGGATGTATATATGTGACACGTGCCTGGAGACTAGGGAGTAATCCCCTTGGCGGTTAAAACGCGGGGGACAGCGCGTACGTGCGTTTAAGCGGTGCTAGAGCTGTCTACGACCAATTGAGCGGCCTCGGCACCGGGATTCTCCAGGGGATCCGGCATCATGGTCTAGAGCG (double strand) [37-N601-27 nucleosome unmethylated]”, which Kd [6] is on record?
A: Its Kd is 167 nM.

Q: And the Kd [2]?
A: Its Kd is 279 nM.

Q: What about the Kd [7] of the same sequence?
A: Its Kd is 279 nM.

Q: And the Kd [4]?
A: The Kd was 137 nM.

Q: And the Kd ([4]; apparent, H1.0 prebound (chromatosome), competitor DNA)?
A: Its Kd is 164 nM.

Q: What about the Kd [8] of the same sequence?
A: Its Kd is 164 nM.

Q: And the Kd [9]?
A: The Kd was 137 nM.

Q: “GAGCCACAAAATCACCGACGCTCACGGGTGCCCAGTTCGCGCGCCCACCTACCGTGTGAAGTCGTCACTCGGGCTTCTAAGTACGCTTAGCGCACGGTAGAGCGCAATCCAAGGCTAACCACCGTGCATCGATGTTGAAAGAGGCCCTCCGTCCTTATTACTTCAAGTCCCTGGGGTACCCGTTTCACTGCCA (double strand) [16-N603-30 nucleosome unmethylated]” was tested. Which Kd [1] did it give?
A: Its Kd is 94.6 nM.

Q: And the Kd [2]?
A: The Kd was 716 nM.

Q: What about the Kd [3] of the same sequence?
A: Its Kd is 188 nM.

Q: What about the Kd [4] of the same sequence?
A: The Kd was 94.9 nM.

Q: What does the source list for “ATGGAACACATTGCACAGGATGTATATATCTGACACGTGCCTGGAGACTAGGGAGTAATCCCCTTGGCGGTTAAAACGCGGGGGACAGCGCGTACGTGCGTTTAAGCGGTGCTAGAGCTGTCTACGACCAATTGAGCGGCCTCGGCACCGGGATTCTCCAGGGCGGCCGCGTATT (double strand) [15-N601-15 nucleosome unmethylated]”?
A: Kd [1]: 240 nM; Kd [2]: 1000 nM; Kd [3]: 596 nM; Kd [4]: 220 nM
